No end group written: not given here.
Biological target: T1, CDC2 (Homo sapiens, UniProt P06493)
T1 construct: incubated with immunoprecipitated CDC2; endogenous in cells
Test: In vitro kinase assay of immunoprecipitated CDC2 with Histone H1 as exogenous substrate
Format: biochemical
Experimental: The 110 N-terminal amino acids of Rak were produced as a GST fusion protein (RAKNT:GST) and incubated with immunoprecipitated CDC2, and subjected to an in vitro kinase assay with Histone H1 added as an exogenous substrate, and analyzed by SDS-PAGE. […] This fusion protein was incubated with immunoprecipitated CDC2, and subjected to an in vitro kinase assay with Histone H1 added as an exogenous substrate, and analyzed by SDS-PAGE.
The CDC2 binding domain of RAK appears to be between amino acids 86-110. Since the binding of RAK to CDC2 is exceptionally strong, the biological function of this interaction was explored.

T1 sequence (P06493 whole entry): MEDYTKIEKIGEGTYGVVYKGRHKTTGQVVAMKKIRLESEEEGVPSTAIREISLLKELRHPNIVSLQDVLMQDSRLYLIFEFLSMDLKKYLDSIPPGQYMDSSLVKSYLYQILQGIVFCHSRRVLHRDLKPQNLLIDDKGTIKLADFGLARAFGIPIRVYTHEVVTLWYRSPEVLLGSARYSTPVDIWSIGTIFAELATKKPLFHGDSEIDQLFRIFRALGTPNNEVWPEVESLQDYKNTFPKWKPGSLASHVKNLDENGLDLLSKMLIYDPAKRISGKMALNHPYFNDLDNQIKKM

KRRDGSSQQLQ [SEQ ID NO:4]
inhibition of CDC2 histone H1 phosphorylation activity: reproducibly attenuated

Reference: US6531296B1, “Nuclear tyrosine kinase Rak” (The University of North Carolina at Chapel Hill, priority 1995, dated 2003)
